# T1: biotinylated human Ang2 protein (human, UniProt O15123 19-496, limits assumed, biotinylated (sites not given))
# T1 construct: also called hAng2
# T1 sequence (looked up): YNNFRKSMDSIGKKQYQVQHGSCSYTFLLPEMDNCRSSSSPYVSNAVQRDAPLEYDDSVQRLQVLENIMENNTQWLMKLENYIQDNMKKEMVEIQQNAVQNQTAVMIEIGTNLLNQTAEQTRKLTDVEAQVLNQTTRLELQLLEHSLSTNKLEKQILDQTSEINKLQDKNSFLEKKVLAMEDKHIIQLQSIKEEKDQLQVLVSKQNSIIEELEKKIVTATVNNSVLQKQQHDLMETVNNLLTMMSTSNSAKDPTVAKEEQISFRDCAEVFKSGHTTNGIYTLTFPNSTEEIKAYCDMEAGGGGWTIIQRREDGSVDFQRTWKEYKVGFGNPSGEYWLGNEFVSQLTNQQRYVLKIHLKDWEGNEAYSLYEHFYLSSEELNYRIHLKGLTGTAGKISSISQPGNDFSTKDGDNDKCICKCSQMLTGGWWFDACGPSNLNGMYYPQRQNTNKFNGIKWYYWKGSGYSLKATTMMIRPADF
# T2: mouse Ang2 (construct not stated) (mouse, UniProt O35608 19-496, limits assumed)
# T2 construct: also called mAng2
# T2 sequence (looked up): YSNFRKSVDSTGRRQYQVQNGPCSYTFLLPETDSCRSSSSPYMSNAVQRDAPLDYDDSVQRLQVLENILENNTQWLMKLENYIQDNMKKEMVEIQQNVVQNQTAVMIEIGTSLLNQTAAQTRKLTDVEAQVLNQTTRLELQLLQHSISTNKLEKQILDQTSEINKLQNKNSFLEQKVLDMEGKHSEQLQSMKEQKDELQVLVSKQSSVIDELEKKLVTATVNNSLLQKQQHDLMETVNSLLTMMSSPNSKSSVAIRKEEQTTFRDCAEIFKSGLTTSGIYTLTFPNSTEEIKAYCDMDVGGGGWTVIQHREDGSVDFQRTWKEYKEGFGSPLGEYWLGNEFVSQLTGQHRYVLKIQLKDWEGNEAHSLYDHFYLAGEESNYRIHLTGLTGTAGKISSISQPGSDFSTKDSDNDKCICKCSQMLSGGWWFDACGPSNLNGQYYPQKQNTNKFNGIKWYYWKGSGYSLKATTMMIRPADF
# T3: human Ang2 (construct not stated) (human, UniProt O15123 19-496, limits assumed)
# T3 construct: also called hAng2
# T3 sequence (looked up): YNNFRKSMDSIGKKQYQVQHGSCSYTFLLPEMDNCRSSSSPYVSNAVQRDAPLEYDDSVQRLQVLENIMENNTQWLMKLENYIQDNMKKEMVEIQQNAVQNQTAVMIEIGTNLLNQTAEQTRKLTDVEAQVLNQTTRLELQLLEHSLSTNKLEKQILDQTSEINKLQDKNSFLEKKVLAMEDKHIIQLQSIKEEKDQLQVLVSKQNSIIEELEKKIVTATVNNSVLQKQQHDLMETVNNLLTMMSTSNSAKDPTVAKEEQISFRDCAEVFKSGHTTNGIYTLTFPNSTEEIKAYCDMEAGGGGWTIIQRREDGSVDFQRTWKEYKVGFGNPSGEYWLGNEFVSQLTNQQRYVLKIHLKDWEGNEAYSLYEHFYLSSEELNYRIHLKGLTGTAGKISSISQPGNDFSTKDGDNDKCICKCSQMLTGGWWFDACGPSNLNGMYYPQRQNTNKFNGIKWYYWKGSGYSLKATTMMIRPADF
# Key:
# [1] = target: T1, biotinylated human Ang2 protein; assay: competition ELISA: antibody preincubated with biotinylated hAng2, binding to coated integrin α3/β1
# Description: 1 μg/ml (100 μl per well) of a human Ti32-Fc (R&D Systems, 313-TI) or mouse Tie2-Fc (R&D Systems, 762-T2-100) solution, an integrin α3/β1 solution (R&D systems, 2840-A3-050), or an integrin α5/β1 solution (R&D systems, 3230-A5-050) was added to a 96-well immunoplate (Nunc, US) and then allowed to stand overnight at 4° C. for adsorption. The next day, the plate was washed four times with PBS containing 0.05% Tween-20 (hereinafter, referred to as PBST), and 200 μl of a 2% BSA/PBST solution was added to each well and then allowed to stand at room temperature for 1 hour to perform blocking. Anti-Ang2 candidate antibodies were serially diluted 4-fold at a maximum of 1000 nM, and biotinylated human Ang2 protein was made to a final concentration of 100 ng/mL or 625 ng/mL, followed by previous binding at room temperature for 1 hour. […] The plate was washed three times with PBST, 100 μl of HRP-conjugated streptavidin (R&D Systems, DY998) diluted to 1:200 was added to allow a reaction to occur at room temperature for 1 hour, thereby inducing binding, and the plate was washed four times with PBST, followed by color development using 100 μl of a TMB substrate reagent. The color development reaction was stopped by adding 50 μl of 2N H₂SO₄, and a Sunrise microplate reader (TECAN, CH) was used to measure specific absorbance OD₄₅₀ (FIGS. 4 and 5).
# [2] = target: T2, mouse Ang2 (construct not stated); assay: SPR Biacore T200, antibody captured on protein A chip, Ang2 as analyte, 1:1 model
# Description: (§1) To analyze the binding affinity of the selected anti-Ang2 antibodies, affinity analysis for human Ang2 and mouse Ang2 was performed using BIACORE® T200 (GE Healthcare). A protein A sensor chip was used, and an experiment was conducted in accordance with the manufacturer's manual. Detailed analysis conditions are as follows. 2000 response units (RU) of protein A were immobilized, 25 RU of anti-Ang2 antibody candidates were used for binding, and various concentrations of human Ang2 and mouse Ang2 were allowed to bind. The starting concentrations for analysis are 100 nM and 150 nM, respectively. The analysis proceeded at a flow rate of 30 μl/min, the binding and dissociation time of human Ang2 was measured as 300 seconds and 2000 seconds, respectively, and the binding and dissociation time of mouse Ang2 was analyzed as 300 seconds and 1000 seconds, respectively. Analysis was performed using a 1:1 binding model as an analytical model.
# [3] = target: T3, human Ang2 (construct not stated); assay: as above
# Description: as §1
Binder,IC50 [1],Kd [2],koff [2],kon [2],Kd [3],koff [3],kon [3]
"No. 3 anti-Ang2 antibody (IgG) (antibody, V domains shown, IgG form: VH cloned into Invivogen pfusess-hchg1 (heavy chain constant region), VL into Invivogen pfuse2ss-hclk (light chain constant region); Expressed in Expi293F, purified on Protein A; also called 1D10) VH: QMQLVQSGGGLVQPGRSLKLSCAASGFSFDDYAMHWVRQAPGKGLEWVATIKDDGSQTYYVDSVKGRFTISRDNAKSSLFLQMNSLRAEDTAVYYCTTEGLMNGLHFDMWGQGTMVTVSS VL: LVLTQPPSVSGAPGQGVTISCTGSSSNIGAGYDVHWYQQFPGTAPKLLISGNNNRPSGLPDRFSGSKSGTSASLAITGLQAEDEADYYCQSYDSRLGVVFGGGTKLTVLG",2.5 nM,0.538 nM,8.53e-05 s⁻¹,158000 M⁻¹ s⁻¹,0.127 nM,4.22e-05 s⁻¹,334000 M⁻¹ s⁻¹
"No. 41 anti-Ang2 antibody (IgG) (antibody, V domains shown, IgG form: VH cloned into Invivogen pfusess-hchg1, VL into Invivogen pfuse2ss-hclk; also called 2B2) VH: QVQLVESGGGLVQPGGSLRLSCEASGFAFGRYEMNWVRQAPGKGLEWIAYIDTGGGAKVYADSVKGRFTISRDDSKNSLYLQMNSLRAEDTAVYYCTTEGLMNGLHFDMWGQGTMITVSS VL: DIQMTQSPSTLSASVGDRVAITCRASQAISTWLAWYQQKPGKAPKLLIYTASTLESGVPSRFSGSGSGTDFTLTINSLQPDDFATYYCQQLNSYPYTFGGGTKVEIKR",2.43 nM,0.328 nM,9.47e-05 s⁻¹,289000 M⁻¹ s⁻¹,0.243 nM,7.77e-05 s⁻¹,320000 M⁻¹ s⁻¹
"No. 4 anti-Ang2 antibody (IgG) (antibody, V domains shown, IgG form: VH cloned into Invivogen pfusess-hchg1, VL into Invivogen pfuse2ss-hclk; also called 2D8) VH: QVQLVESGAEVKRPGESLRISCKTSGYSFTSYWIHWVRQMPGKELEWMGSIYPGNSDTRYSPSFQGHVTISADSSSSTAYLQWSSLKASDTAMYYCTTEGLMNGLHFDMWGQGTMVTVSS VL: DIVMTQTPLSLPVTPGEPASISCRSSQSLLHSLGDNYLDWYLQKPGQSPQLLIYLGSKRAAGVPDRFSGSGSGTDFTLKISRVEAEDVGVYYCMQSLQTPPYTFGQGTKLEIKR",2.42 nM,0.45 nM,7.05e-05 s⁻¹,157000 M⁻¹ s⁻¹,0.217 nM,5.93e-05 s⁻¹,273000 M⁻¹ s⁻¹
"No. 46 anti-Ang2 antibody (IgG) (antibody, V domains shown, IgG form: VH cloned into Invivogen pfusess-hchg1, VL into Invivogen pfuse2ss-hclk; also called 3C6) VH: QVQLVESGGGLVQPGRSLRLSCAASGFTFDDCAMHWVRQAPGKGLEWVSGISGNSKNVAYADSVKGRFSISRDDAKNSLYLQMNSLRAEDTAVYYCARDPAYSQFDYWGQGTLITVSS VL: QSALTQPPSLSATPGQRVTISCSGSSSNVGGYPVNWYQQVPGAAPKLLMYTDYKRPSGVPDRFFGSKSGTSASLAISGLQSEDEADYYCATWDDNLNGYVFGTGTKVTVLG",4.39 nM,0.193 nM,8.94e-05 s⁻¹,465000 M⁻¹ s⁻¹,0.314 nM,8.62e-05 s⁻¹,274000 M⁻¹ s⁻¹
"No. 8 anti-Ang2 antibody (IgG) (antibody, V domains shown, IgG form: VH cloned into Invivogen pfusess-hchg1, VL into Invivogen pfuse2ss-hclk; also called 3A10) VH: QVQLVESGGGLVKPGGSLRLSCAASGFTFSSYSMNWVRQAPGKGLEWVSSISASDGATYYADSVRGRFTISRDNSRSTLYLQMNSLRAEDTAVYYCAKILAGYSGPMGGMDVWGQGTTVTVSS VL: DIQMTQSPSSLSASVGDRVTITCRASRDISNYLAWYQQKPGKAPKSLIYGASNLQSGVSSQFSGSGSGTDFTLTINSLQPEDSATYYCQQYYSYPLTFGGGTKVDIKR",4.68 nM,0.463 nM,6.69e-05 s⁻¹,144000 M⁻¹ s⁻¹,0.163 nM,4.37e-05 s⁻¹,268000 M⁻¹ s⁻¹
